Data on one substance can be found in patent US20190071668.

For this data set, the target named is T1, Androgen receptor (AR) (Homo sapiens?) (UniProt P10275).
T1 sequence: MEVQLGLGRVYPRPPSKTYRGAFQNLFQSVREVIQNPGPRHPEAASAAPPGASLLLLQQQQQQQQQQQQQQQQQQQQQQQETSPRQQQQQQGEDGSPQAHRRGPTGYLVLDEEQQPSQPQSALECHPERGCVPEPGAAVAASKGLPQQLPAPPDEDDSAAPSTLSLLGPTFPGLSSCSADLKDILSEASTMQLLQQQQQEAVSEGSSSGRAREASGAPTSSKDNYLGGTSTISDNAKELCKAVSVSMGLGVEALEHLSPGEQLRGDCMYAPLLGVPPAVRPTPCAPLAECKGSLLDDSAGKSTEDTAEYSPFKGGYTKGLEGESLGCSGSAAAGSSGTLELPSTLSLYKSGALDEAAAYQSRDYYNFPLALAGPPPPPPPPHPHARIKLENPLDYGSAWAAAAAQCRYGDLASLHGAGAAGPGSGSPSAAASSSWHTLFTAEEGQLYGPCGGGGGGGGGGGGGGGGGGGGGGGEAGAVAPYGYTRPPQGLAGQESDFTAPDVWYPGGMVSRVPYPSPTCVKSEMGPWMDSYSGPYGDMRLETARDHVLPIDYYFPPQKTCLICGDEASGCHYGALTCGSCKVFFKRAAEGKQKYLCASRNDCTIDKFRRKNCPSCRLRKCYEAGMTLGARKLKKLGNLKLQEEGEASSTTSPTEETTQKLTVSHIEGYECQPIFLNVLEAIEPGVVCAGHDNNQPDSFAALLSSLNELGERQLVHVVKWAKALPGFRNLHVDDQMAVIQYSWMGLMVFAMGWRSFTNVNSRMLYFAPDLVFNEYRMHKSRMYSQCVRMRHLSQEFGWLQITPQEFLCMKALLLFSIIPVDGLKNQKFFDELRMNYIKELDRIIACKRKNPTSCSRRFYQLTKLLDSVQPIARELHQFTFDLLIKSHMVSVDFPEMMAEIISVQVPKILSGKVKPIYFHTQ
Put plainly: pulldown. The following applies: RIP; not significantly above background SLNCR.

Turning to SLNCR1 delta 568-637, the binding signal (fold enrichment) was 14.
